Experimental findings from patent publication US20050202025A1 are described below.

This test addresses FbsA on cells of S. agalactiae O90R (Streptococcus agalactiae). Nature of the test: increasing fibrinogen on S. agalactiae O90R cells immobilised on microtiter wells; apparent KD from the concentration for half maximal binding.

For “human fibrinogen (from UniProt P02671 20-629; P02675 31-491; P02679 27-437) (ligand)”, the Kd stood at 0.025 µM.
